± gives the standard deviation of the averaged measurements.
What was measured:
[1] = purified protein yield per well (BCA); higher = higher soluble expression
Summary of the method: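 Candidate enzymes were expressed in E. coli C41(DE3) in 2 mL autoinduction cultures with 100 µg/mL kanamycin, at 37 °C for 2 h and then 18 °C for 40 h. Cells were lysed, and protein was bound to Ni-charged magnetic beads and released by SUMO protease cleavage on an OT-2 robot. The read-out is purified protein yield per well, measured with the Pierce Rapid Gold BCA kit. Values below 25 ug (0.1 mg/mL) are below the detection threshold.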

[2] = PET hydrolysis, aromatic products released after 48 h (umol product/mg enzyme); higher = more PET depolymerization activity
Description: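 HTP-purified, SUMO-cleaved, tagless PET hydrolase candidates (5 ug, 1.43 mg/g PET) were incubated 48 h without shaking with 3.5 mg amorphous PET film (aFilm) or crystalline PET powder (cryPow) in 0.5 mL buffer: NaCitrate pH 4.5/5.5, NaPhosphate pH 6.5/7.5, glycine pH 8.5. Incubation was at 40 or 60 C. Aromatic products (TPA, MHET, BHET) in the supernatant were quantified by UV absorbance at 260/280 nm relative to buffer blanks and expressed per mg enzyme. LCC-ICCG was the positive control on every plate.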

[3] = substrate: cryPow, 40 °C, pH 5.5
[4] = substrate: cryPow, 40 °C, pH 6.5
[5] = substrate: cryPow, 40 °C, pH 7.5
[6] = substrate: cryPow, 40 °C, pH 8.5
[7] = substrate: cryPow, 60 °C, pH 5.5
[8] = substrate: cryPow, 60 °C, pH 6.5
[9] = substrate: cryPow, 60 °C, pH 7.5
[10] = substrate: cryPow, 60 °C, pH 8.5

Sequence | purified protein yield per well [1] [µg] | PET hydrolysis [2, 3] | PET hydrolysis [2, 4] | PET hydrolysis [2, 5] | PET hydrolysis [2, 6] | PET hydrolysis ([2]; substrate: aFilm, 40 °C, pH 4.5) | PET hydrolysis ([2]; substrate: aFilm, 40 °C, pH 5.5) | PET hydrolysis ([2]; substrate: aFilm, 40 °C, pH 6.5) | PET hydrolysis ([2]; substrate: aFilm, 40 °C, pH 7.5) | PET hydrolysis ([2]; substrate: aFilm, 60 °C, pH 4.5) | PET hydrolysis ([2]; substrate: aFilm, 60 °C, pH 5.5) | PET hydrolysis ([2]; substrate: aFilm, 60 °C, pH 6.5) | PET hydrolysis ([2]; substrate: aFilm, 60 °C, pH 7.5) | PET hydrolysis ([2]; substrate: cryPow, 40 °C, pH 4.5) | PET hydrolysis ([2]; substrate: cryPow, 60 °C, pH 4.5) | PET hydrolysis [2, 7] | PET hydrolysis [2, 8] | PET hydrolysis [2, 9] | PET hydrolysis [2, 10]
AEPATIHGPAPTEESITAPTGPFEIDRETVPRSTVEGFGGGTIYYPTDTSEGTFSAVAIAPGYTAGQETLAWLGPRLASQGFVVFTIDTITTSDRPDARAEQLAASLDYLTGSSEVQDRIDPARLGVMGHSMGGGGALQAALDDPGLKAAIPMTPWNTVKDFSGVRTPTMIIGAQNDTVAPVAQHSEPFYESLPDDPGKAYLELAGASHFAPNRDDTTIAKSSIAWLKRFLDDDTRYDRFLCPPPQDPEISDYRATCPY [DP023] | 33 | < 3 | < 3 | < 3 | < 3 | – | – | – | – | – | – | – | – | – | – | – | – | – | –
ADNPYQRGPDPTPASVAAVNGPFATASVSVPAGYGFGGGMIYYPTDTSQGTFGGIAISPGYTALFSAELAWMGPWLASHGFVVIGIETNSRNDFDEARGTQLLAALDYLTQQSPVRTRVDPNRLAVSGHSMGGGGALNAAIRRPSLKAAVGLAPFLPSSNLANDRVPTMVFAGQQDTVVSPSYVTNLYNSLPATTESAYLEIAGGDHGFPVGRPNQVMIRTMLPFVKIFLDNDTRYSQFLCPLMDSTGVVTYRSTCPLLPPGLPTTPPTSTSSNPTVGPTTPSTTAPTTTPAPGGACTATYRTTNSWPGGFQGEVTITAGSSAINGWTVRWTLGSGQTISQVWNGEVSITGSTVSVRNAPYNGSLPASGSTTFGFLGGGSPSSPSLTCTSP [TEP165] | 433 | 11 | 52 ± 2.8 | 67 ± 11 | – | < 3 | < 3 | 2 ± 2.8 | < 3 | 2 ± 2.8 | < 3 | 1.5 ± 2.1 | < 3 | 4.5 ± 0.71 | 12 | 25 | 46 ± 1.4 | 45.5 ± 2.1 | –
QSNPYERGPAPTESSIEATRGSFSVSDKNVSSFSASGFGGGTIYYPTDTSQGTFGGVAISPGFTAGESSIAWLGPRIASQGFVVITIDTNSRYDQPNSRADQLQAALDHIVADSTVGSRIDPNRLAVMGHSMGGGGSLKAAEDNADLQAAVPLQPWHTQKNWSDVEVPTLIIGAENDSVASVTTHSKPFYTSLPDDLDKAYLELDGASHFVSNTPDTTTAKYSISWLKRFVDDDTRYEQFLCPAPDDRTISEYRDTCPHSGGGGTTPTTTPTTLPPDDDCAWWQWWC [DP057] | 34 | < 3 | 10 | 29 | 31 | – | – | – | – | – | – | – | – | – | – | – | – | – | –
ATPARPASVAAAPAAVQRAADNPYQRGPAPTEASITAEKGPFAVETIPVPAGSGTGFNKGTVYAPTDTSEGTFGAIVVSPGFVSPEAWISWYGPRLASQGFVVMTLETNSLVDVPASRGDQLLAALDWLTGKSSVKNRIDASRTAVMGHSMGGGGTLEAANKRPSLKADIPLAPWDTNYNFPNIKTPTLIMGADNDLIAPASSMAESYYNNITTAPEKAYLLLKNAGHMTFVSPNTTIAKYSIAWMKRFVDNDTRYDQFLCPAPKPDANIAKYLDTCPNG [DP016] | 83 | 4 | 14 | 17 | 4 | – | – | – | – | – | – | – | – | – | – | 10 | 10 | 7 | < 3
QVAIFQESFSSGLGGFTATGTVGTSTGAARMEGCYGCTDGAITSGAISTQGFTGLSLSFDRVTSGLDSGEAGIAEYSTNGSTWTAVESTRVTTNGRVTFSLPDTAAGQAALRLRFRIDASLSSETYTVDNVQLTGIPGDTGTNPYAKGPNPTTSMLESSTGPFTYATTNVSEFSASGYGGGTIYHPTNVAGPFAAIAISPGYTGTKSTMSWWGERLASHGFVVITIDTNSIYDQPYERAPQLMAALRQLVTFSNTSSHPIYRKVDPNRLGVMGHSMGGGGTLIAARDNPTLKAAIPLAPWNTSTDFSSVRVPTLVVACESDTIAPVSQHASPFYNSIPASATKKAFMEMNNGDHFCVMTGNDYTRIMGKYGVAWMKRFMDNDTRYSPFLCGAPHQADLSNIQISEYRENCPY [DP048] | 56 | < 3 | < 3 | < 3 | < 3 | – | – | – | – | – | – | – | – | – | – | < 3 | < 3 | < 3 | < 3
DTGSHERGPDPTEQALEARSGPFDTDDERVSSLGASGFGGGTIYYPEDTSEGDFGAVALAPGYTASSTSYSSLAERIASHGFVVLAFDTNTRYDQPNSRGRQMESALEYLTEDSDVTDRIDTDRQAVSGHSMGGGGTLAAADDNPDLQAAVPLTPWHTQKSWSGMQVPTMIIGAENDSIASVRSHSIRFYESLPGSLEKGYAEVDGASHFAPNSNDDTVAKYTITWLKRFVDNDTRYEQFLCPPPDSGGWGDDLSDYRDSCPTG [DP052] | 36 | < 3 | < 3 | < 3 | < 3 | – | – | – | – | – | – | – | – | – | – | – | – | – | –

From the supplement of paper PMC12455559
